This passage reports Kd results from paper PMC11239674.

Test in all cases: MST
The target of data set [1] is T1, AtGRP7YtoE Y103E;Y111E;Y118E;Y131E;Y138E;Y148E;Y159E;Y167E (Arabidopsis thaliana) (UniProt Q03250).
T1 sequence: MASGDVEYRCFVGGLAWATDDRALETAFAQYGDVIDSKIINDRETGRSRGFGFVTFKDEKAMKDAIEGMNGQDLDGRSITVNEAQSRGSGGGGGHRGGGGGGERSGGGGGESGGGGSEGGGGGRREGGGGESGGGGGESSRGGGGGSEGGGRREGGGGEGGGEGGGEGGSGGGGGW
The following applies: 25 mM Tris-HCl pH 8.0, 150 mM NaCl (150 mM LiCl for Sc1 LiCl), 1 mM DTT, 0.1 mg/ml BSA; 20 nM Cy5-RNA; about 2 min incubation; temperature not stated; low values mean tight binding.

Data set [2] deals with T2, BnGRP7 (Brassica napus) (UniProt A0A078J5Z4).
T2 sequence: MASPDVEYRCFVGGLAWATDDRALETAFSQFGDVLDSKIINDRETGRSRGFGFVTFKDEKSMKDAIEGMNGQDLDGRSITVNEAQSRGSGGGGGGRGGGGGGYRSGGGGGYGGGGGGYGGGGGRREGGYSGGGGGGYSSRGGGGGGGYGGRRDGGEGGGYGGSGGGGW
Conditions: 25 mM Tris-HCl pH 8.0, 150 mM NaCl (150 mM LiCl for Sc1 LiCl), 1 mM DTT, 0.1 mg/ml BSA; 20 nM Cy5-RNA; about 2 min incubation; temperature not stated; low values mean tight binding.

Data set [3] addresses T3, AtBnGRP7 (Arabidopsis thaliana / Brassica napus chimera) (UniProt Q03250).
T3 sequence: T2 sequence with P4G, S29A, F31Y, L35I, S61A
The following applies: 25 mM Tris-HCl pH 8.0, 150 mM NaCl (150 mM LiCl for Sc1 LiCl), 1 mM DTT, 0.1 mg/ml BSA; 20 nM Cy5-RNA; about 2 min incubation; temperature not stated; low values mean tight binding.

The target in data set [4] is T4, eYFP-AtGRP7RGG (Arabidopsis thaliana) (UniProt Q03250).
T4 sequence: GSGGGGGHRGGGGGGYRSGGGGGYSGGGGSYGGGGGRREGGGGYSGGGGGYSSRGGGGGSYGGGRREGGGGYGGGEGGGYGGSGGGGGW
Conditions: 25 mM Tris-HCl pH 8.0, 150 mM NaCl (150 mM LiCl for Sc1 LiCl), 1 mM DTT, 0.1 mg/ml BSA; 20 nM Cy5-RNA; about 2 min incubation; temperature not stated; low values mean tight binding.

Data set [5] addresses T5, AtGRP7StoE S132E;S139E (Arabidopsis thaliana) (UniProt Q03250).
T5 sequence: T1 sequence with E103Y, E111Y, E118Y, E131Y, S132E, E138Y, S139E, E148Y, E159Y, E167Y
The following applies: 25 mM Tris-HCl pH 8.0, 150 mM NaCl (150 mM LiCl for Sc1 LiCl), 1 mM DTT, 0.1 mg/ml BSA; 20 nM Cy5-RNA; about 2 min incubation; temperature not stated; low values mean tight binding.

In data set [6] the target is T6, AtGRP7 (Arabidopsis thaliana) (UniProt Q03250).
T6 sequence: T1 sequence with E103Y, E111Y, E118Y, E131Y, E138Y, E148Y, E159Y, E167Y
Conditions: 25 mM Tris-HCl pH 8.0, 150 mM NaCl (150 mM LiCl for Sc1 LiCl), 1 mM DTT, 0.1 mg/ml BSA; 20 nM Cy5-RNA; about 2 min incubation; temperature not stated; low values mean tight binding.

The target in data set [7] is T7, AtGRP7StoG S132G;S139G (Arabidopsis thaliana) (UniProt Q03250).
T7 sequence: T1 sequence with E103Y, E111Y, E118Y, E131Y, S132G, E138Y, S139G, E148Y, E159Y, E167Y
The following applies: 25 mM Tris-HCl pH 8.0, 150 mM NaCl (150 mM LiCl for Sc1 LiCl), 1 mM DTT, 0.1 mg/ml BSA; 20 nM Cy5-RNA; about 2 min incubation; temperature not stated; low values mean tight binding.

Data set [8] addresses T8, AtGRP7YtoG Y103G;Y111G;Y118G;Y131G;Y138G;Y148G;Y159G;Y167G (Arabidopsis thaliana) (UniProt Q03250).
T8 sequence: T1 sequence with E103G, E111G, E118G, E131G, E138G, E148G, E159G, E167G
Conditions: 25 mM Tris-HCl pH 8.0, 150 mM NaCl (150 mM LiCl for Sc1 LiCl), 1 mM DTT, 0.1 mg/ml BSA; 20 nM Cy5-RNA; about 2 min incubation; temperature not stated; low values mean tight binding.

For data set [9], the target named is T9, AtGRP7short (Arabidopsis thaliana) (UniProt Q03250).
T9 sequence: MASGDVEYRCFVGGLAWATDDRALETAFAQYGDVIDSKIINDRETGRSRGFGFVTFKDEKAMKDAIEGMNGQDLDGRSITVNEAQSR
Conditions: 25 mM Tris-HCl pH 8.0, 150 mM NaCl (150 mM LiCl for Sc1 LiCl), 1 mM DTT, 0.1 mg/ml BSA; 20 nM Cy5-RNA; about 2 min incubation; temperature not stated; low values mean tight binding.

The subject of data set [10] is AtGRP7 (Arabidopsis thaliana). Conditions: MST: 25 mM Tris-HCl pH 8.0, 150 mM NaCl, 1 mM DTT, 0.1 mg/ml BSA; 20 nM Cy5-RNA; protein titrated from 50-75 uM; about 2 min incubation; temperature not stated.
Data set [11] concerns AtBnGRP7 (Arabidopsis thaliana / Brassica napus chimera). The following applies: MST: 25 mM Tris-HCl pH 8.0, 150 mM NaCl, 1 mM DTT, 0.1 mg/ml BSA; 20 nM Cy5-RNA; protein titrated from 50-75 uM; about 2 min incubation; temperature not stated.
In data set [12] the test system is AtGRP7StoG (Arabidopsis thaliana). Conditions: MST: 25 mM Tris-HCl pH 8.0, 150 mM NaCl, 1 mM DTT, 0.1 mg/ml BSA; 20 nM Cy5-RNA; protein titrated from 50-75 uM; about 2 min incubation; temperature not stated.
The test system of data set [13] is AtGRP7YtoG (Arabidopsis thaliana). The following applies: MST: 25 mM Tris-HCl pH 8.0, 150 mM NaCl, 1 mM DTT, 0.1 mg/ml BSA; 20 nM Cy5-RNA; protein titrated from 50-75 uM; about 2 min incubation; temperature not stated.
Data set [14] has as its system BnGRP7 (Brassica napus). The following applies: MST: 25 mM Tris-HCl pH 8.0, 150 mM NaCl, 1 mM DTT, 0.1 mg/ml BSA; 20 nM Cy5-RNA; protein titrated from 50-75 uM; about 2 min incubation; temperature not stated.
Data set [15] deals with AtGRP7StoE (Arabidopsis thaliana). Conditions: MST: 25 mM Tris-HCl pH 8.0, 150 mM NaCl, 1 mM DTT, 0.1 mg/ml BSA; 20 nM Cy5-RNA; protein titrated from 50-75 uM; about 2 min incubation; temperature not stated.
The test system of data set [16] is eYFP-AtGRP7RGG (Arabidopsis thaliana). Conditions: MST: 25 mM Tris-HCl pH 8.0, 150 mM NaCl, 1 mM DTT, 0.1 mg/ml BSA; 20 nM Cy5-RNA; protein titrated from 50-75 uM; about 2 min incubation; temperature not stated.
Data set [17] deals with AtGRP7short (Arabidopsis thaliana). Conditions: MST: 25 mM Tris-HCl pH 8.0, 150 mM NaCl, 1 mM DTT, 0.1 mg/ml BSA; 20 nM Cy5-RNA; protein titrated from 50-75 uM; about 2 min incubation; temperature not stated.
In data set [18] the target is T6, AtGRP7 (Arabidopsis thaliana). Conditions: 25 mM Tris-HCl pH 8.0, 150 mM NaCl (150 mM LiCl for Sc1 LiCl), 1 mM DTT, 0.1 mg/ml BSA; 20 nM Cy5-RNA; about 2 min incubation; temperature not stated; low values mean tight binding. This is another data set of the same source.

Positions count from the first letter of the chain named.

One may read the Kd as the concentration at which binding is half-saturated. A low value points to higher affinity. On to “AUUUUGUUCUGGUUCUGCUUUAGAUUUGAUGU [AtGRP7 3'UTR fragment (7-UTR-WT, 32 nt)]”, for which the Kd in data set [1] is 701 nM; with BnGRP7 (Brassica napus) [2] it was 17 nM; in [3], 18 nM; in data set [4] it was 31 nM; in data set [5], 72 nM; in data set [6], 158 nM. Further, the Kd is 52 nM in data set [7], 356 nM in data set [8] and 12200 nM in data set [9].
Take AtCOR15A pre-mRNA: the Kd in [10] was determined as 150 nM; in data set [11], 741 nM; in [12] it was 2230 nM; in data set [13], 3750 nM; with BnGRP7 (Brassica napus) [14], 323 nM; in data set [15], 738 nM.
On to AtGRP7 3'UTR fragment (7-UTR-WT), for which the results for the Kd in data set [10] and in data set [16] were 160 nM and 31 nM, respectively.
Regarding AtGRP7 CDS RNA, the Kd in [10] worked out at 182 nM; in data set [16] it was 2100 nM.
BnPARCL CDS RNA: the Kd in data set [10] was determined as 99.7 nM; in data set [17], 4070 nM.
Take “GCUGCGGUGUGGAAGGAGUGGUCGGGUUGCGCAGCG [Sc1 G-quadruplex RNA]”: the Kd was determined as 463 nM in data set [18] and 6900 nM in [6].
For the substance “GGAUGGCGUCCGGUGAUGUUGAGUAUCGGUGCUUCGUUGGAGGUCUAGCAUGGGCCACUGAUGACAGAGCUCUUGAGACUGCCUUCGCUCAAUACGGCGACGUUAUUGAUUCCAAGAUCAUUAACGAUCGUGAGACUGGAAGAUCAAGGGGAUUCGGAUUCGUCACCUUCAAGGAUGAGAAAGCCAUGAAGGAUGCGAUUGAGGGAAUGAACGGACAAGAUCUCGAUGGCCGUAGCAUCACUGUUAACGAGGCUCAGUCACGAGGAAGCGGUGGCGGCGGAGGCCACCGUGGAGGUGGUGGCGGUGGAUACCGCAGCGGCGGUGGUGGAGGUUACUCCGGUGGAGGUGGUAGCUACGGAGGUGGCGGCGGUAGACGCGAGGGUGGAGGAGGAUACAGCGGCGGCGGCGGCGGUUACUCCUCAAGAGGUGGUGGUGGCGGAAGCUACGGUGGUGGAAGACGUGAGGGAGGAGGAGGAUACGGUGGUGGUGAAGGAGGAGGUUACGGAGGAAGCGGUGGUGGUGGAGGAUGGUAA [AtGRP7]”, the Kd in [1] was 5400 nM; with BnGRP7 (Brassica napus) [2] it was 3720 nM; in [3], 107 nM; in data set [4], 1520 nM; in data set [5], 536 nM; in data set [6] it was 182 nM. In addition, the Kd in data set [7] worked out at 1170 nM; in data set [8] it was 7390 nM.
For UCUUGUUCUGGUUUGGUUUUGAAC [Bn-miRnovel2], the equilibrium dissociation constant (Kd) in [1] stood at 267 nM; in the data set with BnGRP7 (Brassica napus) [2] it was 5.8 nM; in data set [3], 35 nM; in data set [5] it was 29 nM; in data set [6], 260 nM; in [7], 22 nM. Also, the Kd in data set [8] is 41 nM; in [9] it was 4490 nM.
Consider miR164, for which the Kd came to 42 nM in [10], 5930 nM in data set [17] and 21 nM in the data set on BnGRP7 (Brassica napus) [14].
